These results are taken from paper PMC8505397, “Development of peptides targeting receptor binding site of the envelope glycoprotein to contain the West Nile virus infection” (Scientific Reports, 2021).

Positions of bridges follow the written chain, without caps; N, C: chain ends. No end group written: not given here.

One series relates to hBMECs. Put plainly: Peptide cytotoxicity assay (XTT). The conditions noted are these: positive control; hBMECs; untreated = 100% viability. The format is cell-based, human. As for the experimental part:
The toxicity of peptides was determined by the XTT test (AppliChem, USA) as per the manufacturer’s instructions. Details are presented in Supplementary Method S15. […]
Cytotoxicity assay. hBMECs were cultured in 96-well TPP tissue culture plates (Sigma) in supplemented EBM-2 medium (Lonza) to obtain ~70% confluency (as described in Supplementary Method S1). The peptides in concentrations of 1 µM, 2 µM, 4 µM, and 6 µM (diluted in 100 µL of EBM-2 medium supplemented only with 10% FBS, 10 mM HEPES and 1 ng/mL bFGF; Sigma) were added and incubated for 24 h at 37°C in a humid atmosphere of 5% CO2. Untreated cells served as a negative control (100% viability). For positive control, cells treated with 0.01% Triton X-100 were used. After incubation, the mixture of XTT and activation reagent (5:0.1 [v/v], 50 µL each well) was added to each well and incubated for an additional 3 h at 37°C in a humid atmosphere of 5% CO2. The absorbance was measured at 450 nm. The assay was performed in replicates. The viability (%) of endothelial cells was calculated using the formula: Cell viability (%) = [(A - xA ) × 100] / (xA -
In general terms: Formazan colour is commonly taken as a measure of viable cells.

In series [1] the target is proteins of hBMECs (human (endogenous in hBMECs)). Put plainly: ELISA; proteins of hBMECs coated into microtiter wells, rDIII (2 µg, printed as 0.15 nM) added without pre-blocking; negative control (no rDIII) subtracted. For orientation: An ELISA detects its analyte on a solid surface through an enzyme-linked reagent.
The target of series [2] is T1, 7-mer cyclic peptide CP4 (ACX7CGGGS form of CIHSSTRAC) (disulfide 2-10 (inferred)).
T1 construct: additional alanine at the N-terminus (ACX7CGGGS); peptide of phage clone CC4; C-terminal linker; source: E. coli SHuffle T5, purified; N-terminal tag cleaved with enterokinase and removed on nickel beads; not shown: His6, N-terminal, cleaved; 28 aa tag, N-terminal, cleaved
T1 peptide: ACIHSSTRACGGGS
Put plainly: ELISA; peptides covalently coated through their C-terminus in Nunc CovaLink NH plates (EDC plus sulfo-NHS), blocked with 0.5% BSA in PBS, incubated with rDIII, detected with HisProbe-HRP; negative control (no rDIII) subtracted. The conditions noted are these: both partners purified.

For series [3], the target named is T2, 7-mer cyclic peptide CP6 (ACX7CGGGS form of CMQTQRAHC) (disulfide 2-10 (inferred)).
T2 construct: additional alanine at the N-terminus (ACX7CGGGS); peptide of phage clone CC6; C-terminal linker; source: E. coli SHuffle T5, purified; N-terminal tag cleaved with enterokinase and removed on nickel beads; not shown: His6, N-terminal, cleaved; 28 aa tag, N-terminal, cleaved
T2 peptide: ACMQTQRAHCGGGS
The description is as above. The conditions noted are these: both partners purified.

Series [4] has as its target T3, 7-mer cyclic peptide CP7 (ACX7CGGGS form of CTNANHYFC) (disulfide 2-10 (inferred)).
T3 construct: additional alanine at the N-terminus (ACX7CGGGS); peptide of phage clone CC7; C-terminal linker; source: E. coli SHuffle T5, purified; N-terminal tag cleaved with enterokinase and removed on nickel beads; not shown: His6, N-terminal, cleaved; 28 aa tag, N-terminal, cleaved
T3 peptide: ACTNANHYFCGGGS
The description is as above. The conditions noted are these: both partners purified.

The target of series [5] is T4, 12-mer linear peptide LP3 (X12GGGS form of SGVYKVAYDWQH).
T4 construct: peptide of phage clone LC3; C-terminal linker; source: E. coli SHuffle T5, purified; N-terminal tag cleaved with enterokinase and removed on nickel beads; not shown: His6, N-terminal, cleaved; 28 aa tag, N-terminal, cleaved
T4 peptide: SGVYKVAYDWQHGGGS
The series is described as above. The conditions noted are these: both partners purified.

In series [6] the target is T5, 7-mer cyclic peptide CP12 (ACX7CGGGS form of CTYENHRTC) (disulfide 2-10 (inferred)).
T5 construct: additional alanine at the N-terminus (ACX7CGGGS); peptide of phage clone CC12; C-terminal linker; source: E. coli SHuffle T5, purified; N-terminal tag cleaved with enterokinase and removed on nickel beads; not shown: His6, N-terminal, cleaved; 28 aa tag, N-terminal, cleaved
T5 peptide: ACTYENHRTCGGGS
The description is as above. The note with it: both partners purified.

Series [7] has as its target T6, 7-mer cyclic peptide CP15 (ACX7CGGGS form of CDPRHSKFC) (disulfide 2-10 (inferred)).
T6 construct: additional alanine at the N-terminus (ACX7CGGGS); peptide of phage clone CC15; C-terminal linker; source: E. coli SHuffle T5, purified; N-terminal tag cleaved with enterokinase and removed on nickel beads; not shown: His6, N-terminal, cleaved; 28 aa tag, N-terminal, cleaved
T6 peptide: ACDPRHSKFCGGGS
The series is described as above. The note with it: both partners purified.

The target of series [8] is T7, 7-mer cyclic peptide CP16 (ACX7CGGGS form of CLAQSHPLC) (disulfide 2-10 (inferred)).
T7 construct: additional alanine at the N-terminus (ACX7CGGGS); peptide of phage clone CC16; C-terminal linker; also called C16; source: E. coli SHuffle T5, purified; N-terminal tag cleaved with enterokinase and removed on nickel beads; not shown: His6, N-terminal, cleaved; 28 aa tag, N-terminal, cleaved
T7 peptide: ACLAQSHPLCGGGS
Described as above. The conditions noted are these: both partners purified.

Series [9] has as its target T8, 7-mer cyclic peptide CP2 (ACX7CGGGS form of CTKTDVHFC) (disulfide 2-10 (inferred)).
T8 construct: additional alanine at the N-terminus (ACX7CGGGS); peptide of phage clone CC2; C-terminal linker; source: E. coli SHuffle T5, purified; N-terminal tag cleaved with enterokinase and removed on nickel beads; not shown: His6, N-terminal, cleaved; 28 aa tag, N-terminal, cleaved
T8 peptide: ACTKTDVHFCGGGS
The description is as above. The conditions noted are these: both partners purified.

Turning to Triton X-100 [reference compound], the “cell viability (XTT)” value in the series with hBMECs is reported as less than 2.8%.

“recombinant domain III (DIII) of the envelope (E) glycoprotein of West Nile virus (domain or fragment)”: in series [1], the A450 turned out to be 1.06.

B1: recombinant domain III (DIII) of the envelope (E) glycoprotein of West Nile virus (domain or fragment)
chain: GTTYGVCSKAFKFLGTPADTGHGTVVLELQYTGTDGPCKVPISSVASLNDLTPVGRLVTVNPFVSVATANAKVLIELEPPFGDSYIVVGRGEQQINHHWHK
As for B1, the A450 was greater than 1.9 in series [2]; greater than 1.9 in [3]; greater than 1.9 in [4]; 2.56 in [5]; greater than 1.9 in series [6]; greater than 1.9 in series [7]. For the same molecule, the A450 in [8] and in [9] was greater than 1.9 in each case.
